Data: patent publication US20140087995A1 (published 2014)
Where two headings read alike, the source gives them in different places. Numbered stars: 1 amine (or outer) side, 2 acyl side, 3 side chain; on linkers, the order of the positions; unused ones are H or OH. Bridge positions count the residues as written; N and C are the ends. Square brackets hold non-standard residues; d marks the D form. Side chains are listed from the residue outwards. Ends that are not written are not given here. * marks the point of attachment. C20 diacid = O=C(O)CCCCCCCCCCCCCCCCCCC(=O)*; γGlu = O=C(O)[C@H](CCC(=O)[*:2])N[*:1]; AEEA = NCCOCCOCC(=O)O

B1: N^ε1-[(4S)-4-carboxy-4-[[(4S)-4-carboxy-4-(19-carboxynonadecanoylamino)butanoyl]amino]butanoyl]-[D-Asp14,Arg17,Pro21,Pro27,Arg35]-h-amylin (peptide)
peptide: K([γGlu-γGlu-C20 diacid])CNTATCATQRLA[dD]FLRHSSPNFGAIPSSTNVGSRTY-NH2
modifications: disulfide 2-7; N-terminus assumed
SMILES: CC[C@H](C)[C@H](NC(=O)[C@H](C)NC(=O)CNC(=O)[C@H](Cc1ccccc1)NC(=O)[C@H](CC(N)=O)NC(=O)[C@@H]1CCCN1C(=O)[C@H](CO)NC(=O)[C@H](CO)NC(=O)[C@H](Cc1c[nH]cn1)NC(=O)[C@H](CCCNC(=N)N)NC(=O)[C@H](CC(C)C)NC(=O)[C@H](Cc1ccccc1)NC(=O)[C@@H](CC(=O)O)NC(=O)[C@H](C)NC(=O)[C@H](CC(C)C)NC(=O)[C@H](CCCNC(=N)N)NC(=O)[C@H](CCC(N)=O)NC(=O)[C@@H](NC(=O)[C@H](C)NC(=O)[C@@H]1CSSC[C@H](NC(=O)[C@@H](N)CCCCNC(=O)CC[C@H](NC(=O)CC[C@H](NC(=O)CCCCCCCCCCCCCCCCCCC(=O)O)C(=O)O)C(=O)O)C(=O)N[C@@H](CC(N)=O)C(=O)N[C@@H]([C@@H](C)O)C(=O)N[C@@H](C)C(=O)N[C@@H]([C@@H](C)O)C(=O)N1)[C@@H](C)O)C(=O)N1CCC[C@H]1C(=O)N[C@@H](CO)C(=O)N[C@@H](CO)C(=O)N[C@H](C(=O)N[C@@H](CC(N)=O)C(=O)N[C@H](C(=O)NCC(=O)N[C@@H](CO)C(=O)N[C@@H](CCCNC(=N)N)C(=O)N[C@H](C(=O)N[C@@H](Cc1ccc(O)cc1)C(N)=O)[C@@H](C)O)C(C)C)[C@@H](C)O
notes: residue 14 is D-aspartic acid (printed 14d)
B2: N^ε1-[2-[2-[2-[[(4S)-4-carboxy-4-(19-carboxynonadecanoylamino)butanoyl]amino]ethoxy]ethoxy]acetyl]-[Arg17,Pro21,Pro27,Pro31,His35]-h-amylin (peptide)
peptide: K([AEEA-γGlu-C20 diacid])CNTATCATQRLANFLRHSSPNFGAIPSSTPVGSHTY-NH2
modifications: disulfide 2-7; N-terminus assumed
SMILES: CC[C@H](C)[C@H](NC(=O)[C@H](C)NC(=O)CNC(=O)[C@H](Cc1ccccc1)NC(=O)[C@H](CC(N)=O)NC(=O)[C@@H]1CCCN1C(=O)[C@H](CO)NC(=O)[C@H](CO)NC(=O)[C@H](Cc1c[nH]cn1)NC(=O)[C@H](CCCNC(=N)N)NC(=O)[C@H](CC(C)C)NC(=O)[C@H](Cc1ccccc1)NC(=O)[C@H](CC(N)=O)NC(=O)[C@H](C)NC(=O)[C@H](CC(C)C)NC(=O)[C@H](CCCNC(=N)N)NC(=O)[C@H](CCC(N)=O)NC(=O)[C@@H](NC(=O)[C@H](C)NC(=O)[C@@H]1CSSC[C@H](NC(=O)[C@@H](N)CCCCNC(=O)COCCOCCNC(=O)CC[C@H](NC(=O)CCCCCCCCCCCCCCCCCCC(=O)O)C(=O)O)C(=O)N[C@@H](CC(N)=O)C(=O)N[C@@H]([C@@H](C)O)C(=O)N[C@@H](C)C(=O)N[C@@H]([C@@H](C)O)C(=O)N1)[C@@H](C)O)C(=O)N1CCC[C@H]1C(=O)N[C@@H](CO)C(=O)N[C@@H](CO)C(=O)N[C@H](C(=O)N1CCC[C@H]1C(=O)N[C@H](C(=O)NCC(=O)N[C@@H](CO)C(=O)N[C@@H](Cc1c[nH]cn1)C(=O)N[C@H](C(=O)N[C@@H](Cc1ccc(O)cc1)C(N)=O)[C@@H](C)O)C(C)C)[C@@H](C)O
notes: also called compound 57
B3: N^ε1-[2-[2-[2-[[(4S)-4-carboxy-4-(19-carboxynonadecanoylamino)butanoyl]amino]ethoxy]ethoxy]acetyl]-[Arg17,Pro21,Pro27,Pro34,His35]-h-amylin (peptide)
peptide: K([AEEA-γGlu-C20 diacid])CNTATCATQRLANFLRHSSPNFGAIPSSTNVGPHTY-NH2
modifications: disulfide 2-7; N-terminus assumed
SMILES: CC[C@H](C)[C@H](NC(=O)[C@H](C)NC(=O)CNC(=O)[C@H](Cc1ccccc1)NC(=O)[C@H](CC(N)=O)NC(=O)[C@@H]1CCCN1C(=O)[C@H](CO)NC(=O)[C@H](CO)NC(=O)[C@H](Cc1c[nH]cn1)NC(=O)[C@H](CCCNC(=N)N)NC(=O)[C@H](CC(C)C)NC(=O)[C@H](Cc1ccccc1)NC(=O)[C@H](CC(N)=O)NC(=O)[C@H](C)NC(=O)[C@H](CC(C)C)NC(=O)[C@H](CCCNC(=N)N)NC(=O)[C@H](CCC(N)=O)NC(=O)[C@@H](NC(=O)[C@H](C)NC(=O)[C@@H]1CSSC[C@H](NC(=O)[C@@H](N)CCCCNC(=O)COCCOCCNC(=O)CC[C@H](NC(=O)CCCCCCCCCCCCCCCCCCC(=O)O)C(=O)O)C(=O)N[C@@H](CC(N)=O)C(=O)N[C@@H]([C@@H](C)O)C(=O)N[C@@H](C)C(=O)N[C@@H]([C@@H](C)O)C(=O)N1)[C@@H](C)O)C(=O)N1CCC[C@H]1C(=O)N[C@@H](CO)C(=O)N[C@@H](CO)C(=O)N[C@H](C(=O)N[C@@H](CC(N)=O)C(=O)N[C@H](C(=O)NCC(=O)N1CCC[C@H]1C(=O)N[C@@H](Cc1c[nH]cn1)C(=O)N[C@H](C(=O)N[C@@H](Cc1ccc(O)cc1)C(N)=O)[C@@H](C)O)C(C)C)[C@@H](C)O
notes: also called compound 58

Columns and labels:
rat calcitonin receptor = molecular target: T1, rat calcitonin receptor (rat, UniProt P32214 25-516); assay: SPA competition binding, displacement of 125I-Calcitonin from membranes of BHK tk'ts 13 cells with rat calcitonin receptor (Assay VIII)
T1 construct: whole, on cells; In cell membranes prepared from transiently transfected BHK tk'ts 13 cells (Assay VIII); also called rCTR; rat calcitonin (a) receptor
T1 sequence (looked up): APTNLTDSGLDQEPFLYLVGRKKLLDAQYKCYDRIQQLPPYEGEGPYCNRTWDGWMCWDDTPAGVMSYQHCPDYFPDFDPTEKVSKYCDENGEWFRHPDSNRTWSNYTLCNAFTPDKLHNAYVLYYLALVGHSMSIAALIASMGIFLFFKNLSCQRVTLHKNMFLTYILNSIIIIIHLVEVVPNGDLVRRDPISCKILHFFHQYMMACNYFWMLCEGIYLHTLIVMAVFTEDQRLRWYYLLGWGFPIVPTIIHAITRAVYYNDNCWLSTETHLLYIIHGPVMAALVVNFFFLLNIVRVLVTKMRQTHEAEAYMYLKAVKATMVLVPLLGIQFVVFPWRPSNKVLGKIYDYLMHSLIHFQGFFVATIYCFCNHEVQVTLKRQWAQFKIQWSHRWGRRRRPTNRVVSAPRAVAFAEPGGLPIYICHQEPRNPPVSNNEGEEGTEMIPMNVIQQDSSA

[1] = molecular target: T2, rat amylin receptor (rat calcitonin receptor + rat RAMP 3) (rat, UniProt P32214 25-516; Q9JJ73 23-147); assay: SPA competition binding, displacement of 125I-rat amylin from membranes of BHK tk'ts 13 cells with rat calcitonin receptor + rat RAMP 3 (Assay VI)
T2 construct: whole, on cells; Receptor complex in cell membranes prepared from transiently transfected BHK tk'ts 13 cells (Assay VI); also called rAmylin-R; rat amylin 3(a) receptor
T2 sequence (looked up) 1: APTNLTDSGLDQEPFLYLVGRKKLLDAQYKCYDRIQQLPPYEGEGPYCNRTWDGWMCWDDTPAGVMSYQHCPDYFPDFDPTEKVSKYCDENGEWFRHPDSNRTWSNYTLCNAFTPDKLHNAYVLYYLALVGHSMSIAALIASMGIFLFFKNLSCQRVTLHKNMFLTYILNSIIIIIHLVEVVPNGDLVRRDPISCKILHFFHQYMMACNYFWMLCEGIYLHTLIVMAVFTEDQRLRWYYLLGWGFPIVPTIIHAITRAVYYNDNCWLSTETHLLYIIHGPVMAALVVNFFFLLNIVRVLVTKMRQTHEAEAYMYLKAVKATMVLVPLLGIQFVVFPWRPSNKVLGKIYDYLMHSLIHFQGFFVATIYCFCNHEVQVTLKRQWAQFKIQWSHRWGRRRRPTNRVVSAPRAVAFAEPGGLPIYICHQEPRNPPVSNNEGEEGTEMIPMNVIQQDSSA
T2 sequence (looked up) 2: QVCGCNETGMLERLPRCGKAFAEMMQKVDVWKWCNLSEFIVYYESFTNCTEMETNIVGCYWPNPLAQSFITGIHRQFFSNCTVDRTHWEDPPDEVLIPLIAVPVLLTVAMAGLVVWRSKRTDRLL
Procedure: (§1) The binding assay was performed using scintillation proximity assay (SPA) beads (RPNQ0001) from PerkinElmer and cell membranes from the Amylin 3(a)/CRE-luc cells (as described in Assay (II)) were used. Membranes were prepared in the following way; the cells were rinsed with PBS and incubated with Versene for approximately 5 min before harvesting. The cells were flushed with PBS and the cell-suspension was centrifuged for 5 min at 1000 rpm. Cells were homogenized (ultrathurrax) in a buffer containing 20 mM Na-HEPES and 10 mM EDTA (pH 7.4) and centrifuged at 20.000 rpm for 15 min. The resulting pellet was resuspended, homogenized and centrifuged (20.000 rpm, 15 min) in a buffer containing 20 mM Na-HEPES and 0.1 mM EDTA (pH 7.4, buffer 2). The resulting pellet was resuspended in buffer 2 and protein concentration was measured (BCA protein Assay, Pierce). The homogenate was kept cold during the whole procedure. The membranes were kept at −80° C. until use. The assay was performed in a 384 well Optiplate (PerkinElmer) in a total volume of 40 ul. Membranes were mixed with SPA beads. Final concentration of membranes 35 ng/μL final and SPA beads was 0.05 mg/well. Test-compounds were dissolved in DMSO and further diluted in assay buffer (50 mM Hepes, pH 7.4, 1 mM CaCl2, 5 mM MgCl₂, 0.1% OA and 0.02% Tween20). […] The final mixture was incubated with shaking at 400 rpm for 120 min at 25° C. prior to centrifugation (1500 rpm, 10 min). Samples were analyzed on TopCounter™ (Packard). The IC₅₀ was calculated using (one site binding competition analysis) GraphPad Prism5 as a measure of receptor affinity.
Cells were grown in DMEM with 10% FBS and 1% Pen/Strep. Approximately 48 hours after transfection, the cells were harvested and membranes were prepared.

[2] = molecular target: T3, human amylin receptor (amylin 3(a) receptor: human calcitonin receptor plus RAMP-3) (human, UniProt P30988 25-474; O60896 24-148); assay: cell-based or functional assay
T3 sequence (looked up) 1: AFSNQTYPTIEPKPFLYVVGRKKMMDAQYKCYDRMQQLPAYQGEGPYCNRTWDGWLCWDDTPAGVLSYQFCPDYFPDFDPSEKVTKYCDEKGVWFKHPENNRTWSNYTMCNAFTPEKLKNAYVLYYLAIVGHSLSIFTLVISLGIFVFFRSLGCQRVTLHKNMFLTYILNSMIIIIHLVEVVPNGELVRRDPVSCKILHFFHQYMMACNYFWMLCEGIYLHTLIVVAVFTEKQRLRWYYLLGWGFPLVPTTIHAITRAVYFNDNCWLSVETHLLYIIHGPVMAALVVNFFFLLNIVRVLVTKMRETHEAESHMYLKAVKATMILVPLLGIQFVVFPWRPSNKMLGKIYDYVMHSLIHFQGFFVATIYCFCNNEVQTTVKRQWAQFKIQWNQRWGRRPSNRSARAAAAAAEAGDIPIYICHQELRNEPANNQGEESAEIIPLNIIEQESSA
T3 sequence (looked up) 2: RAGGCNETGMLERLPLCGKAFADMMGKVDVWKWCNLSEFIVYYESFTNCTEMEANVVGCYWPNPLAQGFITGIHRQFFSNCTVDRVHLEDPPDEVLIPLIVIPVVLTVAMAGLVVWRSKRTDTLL

[3] = molecular target: T4, human calcitonin receptor (human, UniProt P30988 25-474); assay: cell-based or functional assay
T4 sequence (looked up): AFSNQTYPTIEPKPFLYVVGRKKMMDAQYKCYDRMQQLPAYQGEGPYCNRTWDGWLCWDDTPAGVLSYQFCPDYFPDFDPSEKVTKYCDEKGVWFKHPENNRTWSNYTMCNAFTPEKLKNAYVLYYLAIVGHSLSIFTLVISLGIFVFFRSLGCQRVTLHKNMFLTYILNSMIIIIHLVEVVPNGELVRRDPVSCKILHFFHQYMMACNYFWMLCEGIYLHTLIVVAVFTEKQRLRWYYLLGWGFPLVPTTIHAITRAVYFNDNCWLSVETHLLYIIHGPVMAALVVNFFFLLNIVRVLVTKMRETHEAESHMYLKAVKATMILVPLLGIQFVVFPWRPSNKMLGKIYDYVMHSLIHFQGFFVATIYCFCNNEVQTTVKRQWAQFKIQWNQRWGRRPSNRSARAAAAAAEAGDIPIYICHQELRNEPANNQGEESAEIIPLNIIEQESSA

[4] = molecular target: T3, human amylin receptor (amylin 3(a) …); assay: cell-based or functional assay; remark: listed apart in the source
[5] = molecular target: T4, human calcitonin receptor; assay: cell-based or functional assay; remark: listed apart in the source
[6] = molecular target: T3, human amylin receptor (amylin 3(a) …); assay: SPA competition, displacement of 125I-rat amylin from membranes of BHK cells with human calcitonin receptor + RAMP-3 (Assay V)
Procedure: as §1

[7] = molecular target: T3, human amylin receptor (amylin 3(a) …); assay: as above; remark: listed apart in the source
Procedure: as §1

Binder	IC50 (rat calcitonin receptor) [nM]	IC50 [1] [nM]	Ratio hCT/hAmylin funct. [2]	hAmylin-R funct. EC50 (pM) [2] [pM]	hCTR funct. EC50 (pM) [3] [pM]	Ratio hCT/hAmylin funct. [4]	hAmylin-R funct. EC50 (pM) [4] [pM]	hCTR funct. EC50 (pM) [5] [pM]	IC50 [6] [nM]	IC50 [7] [nM]
B1	536	1.69	–	–	–	–	–	–	–	–
B2	–	–	35	89	3120	35	89	3120	0.115	0.115
B3	–	–	21.9	47	1030	21.9	47	1030	0.088	0.088
